The text below walks through data of the RNAGym collection of RNA variant scans (doi:10.7554/elife.80360).

B1: Hairpin Ribozyme (parent)
chain: GUCCUCUUUCACGUGCGCGUGAAAGAGAGAAGUGAACCAGAGAAACACACGUUGUGGUAUAUUACCUGGUA

In the data set the parent is B1. As to the kind of experiment: self-cleavage, relative activity (ratio to wild type); higher = more cleavage; co-transcriptional.
As for C38A G40A, the self-cleavage was 0.139.

For G32C U58A, the self-cleavage stood at 0.116.

With U20G A22G, the self-cleavage was 0.959.

In the case of A26G A59G, the self-cleavage was 0.158.

Consider G40C G54U, for which the self-cleavage worked out at 0.0743.

As for G40C A59G, the self-cleavage amounted to 0.0907.

Consider A41G G57C, for which the self-cleavage worked out at 0.172.

G21U A31G: the self-cleavage turned out to be 0.325.

On to U33A A35G, for which the self-cleavage was 0.17.

Regarding A28C A30U, the self-cleavage is 0.126.

C37G A61C: the self-cleavage came to 0.112.

G17C C37A: the self-cleavage worked out at 0.287.

With C6G A30U, the self-cleavage is 0.105.

As to U62C G68A, the self-cleavage came to 0.2.

As for G17A A26G, the self-cleavage was found to be 1.01.

For the variant G54U U70A, the self-cleavage came out at 0.657.

With G40C A43G, the self-cleavage amounted to 0.138.

For C12A A44U, the self-cleavage was 0.186.

Consider A31G C38A, for which the self-cleavage was 0.157.

As to G27U G54U, the self-cleavage was found to be 0.208.

For C12G U60A, the self-cleavage is 0.748.

As for A49U U53G, the self-cleavage was 0.167.

Take C6U U7C: the self-cleavage is 0.555.

Regarding U5C U7C, the self-cleavage is 0.303.

As to C3G C10G, the self-cleavage came out at 0.182.

As for A36G U63G, the self-cleavage came out at 0.3.

G25A C65U: the self-cleavage turned out to be 0.215.

For U58G C65G, the self-cleavage turned out to be 0.146.

Regarding G17C U53G, the self-cleavage was 0.41.

For A45G A47G, the self-cleavage is 0.101.

On to A28C G56U, for which the self-cleavage is 0.0871.

With A31C A59G, the self-cleavage was found to be 0.132.

For A31G C65G, the self-cleavage is 0.17.

Take A31G U60A: the self-cleavage was found to be 0.677.

Take G54C G56A: the self-cleavage was found to be 0.116.

On to A11G G57A, for which the self-cleavage came to 0.159.

Turning to A39U A45C, the self-cleavage is 0.123.

On to A28G G56U, for which the self-cleavage was determined as 0.165.

For the variant C12U U60A, the self-cleavage is 0.766.

Consider C50U U63A, for which the self-cleavage is 0.172.

With U5G U7A, the self-cleavage worked out at 0.2.

Consider A11U C18G, for which the self-cleavage came to 0.812.

As for U55G G57C, the self-cleavage is 0.126.

Regarding G32U A71C, the self-cleavage is 0.206.

For the variant G27A A64G, the self-cleavage is 0.303.

In the case of G32C A47G, the self-cleavage was determined as 0.0562.

As for U7A A61G, the self-cleavage is 0.186.

For G54U C65G, the self-cleavage was determined as 0.145.

Turning to C37U U70C, the self-cleavage came to 0.603.

With G27U U52G, the self-cleavage came out at 0.114.

In the case of C10U G42A, the self-cleavage was found to be 0.195.

Take C38U C50G: the self-cleavage came out at 0.0694.

For the variant C3A A31C, the self-cleavage came out at 0.144.

Take G1C A71U: the self-cleavage is 0.153.

On to C18U C65G, for which the self-cleavage was found to be 0.27.

As to U33G U63A, the self-cleavage came out at 0.126.

As for G21C A44G, the self-cleavage worked out at 0.194.

On to G40U A49G, for which the self-cleavage was 0.175.

For U2C A45G, the self-cleavage was 0.0514.

As for C37G A45C, the self-cleavage was determined as 0.112.

Consider A22U U62A, for which the self-cleavage turned out to be 0.161.

As to A26U G42A, the self-cleavage stood at 0.153.

A24G A39G: the self-cleavage was determined as 0.308.

As for C10A G13C, the self-cleavage was 0.411.

As to C12A G27U, the self-cleavage is 0.249.

Take A30C U63A: the self-cleavage stood at 0.267.

On to G17A G34U, for which the self-cleavage came out at 0.967.

Turning to G40U A41G, the self-cleavage was 0.419.

In the case of U2C A41U, the self-cleavage amounted to 0.283.

Regarding C3U A30U, the self-cleavage worked out at 0.0886.

Turning to A28U G51A, the self-cleavage was 0.716.

On to G1A U33C, for which the self-cleavage is 0.0709.

With C4A A44U, the self-cleavage came out at 0.239.

In the case of G34A U58C, the self-cleavage was 1.11.

On to A22G U62G, for which the self-cleavage turned out to be 0.122.

For the variant U9C G15U, the self-cleavage amounted to 0.879.

With G19U G34U, the self-cleavage came to 1.3.

As to U7A A22U, the self-cleavage stood at 0.814.

G32C G51A: the self-cleavage came to 0.14.

As for U9A A64C, the self-cleavage stood at 0.0749.

For the variant U20A A49U, the self-cleavage worked out at 0.272.

As to U7C C46U, the self-cleavage worked out at 0.195.

In the case of C18G C48U, the self-cleavage was 0.11.

On to C18G C48G, for which the self-cleavage came out at 0.138.

Consider G15A G34U, for which the self-cleavage is 1.26.

As for C38A U63A, the self-cleavage came to 0.0537.

For the variant A47U G69C, the self-cleavage worked out at 0.227.

U7A C48A: the self-cleavage was found to be 0.165.

Turning to A35C C38G, the self-cleavage was found to be 0.112.

With U52C A64C, the self-cleavage was found to be 0.128.

In the case of C6U A41C, the self-cleavage was 1.16.

Turning to U8G A41U, the self-cleavage was 1.07.

Take U20C C46A: the self-cleavage is 0.237.

As to U14A G19C, the self-cleavage was determined as 0.819.

With G27A, the self-cleavage was 0.454.

In the case of U5A G25A, the self-cleavage was determined as 0.106.

In the case of U7C A61U, the self-cleavage was 0.175.

As to G54U U63G, the self-cleavage stood at 0.159.

In the case of U20C G29U, the self-cleavage is 0.235.

Take A36U G56A: the self-cleavage was 0.0631.

C38G U60G: the self-cleavage turned out to be 0.146.

As to C10U G56C, the self-cleavage stood at 0.25.

Turning to A35G U62C, the self-cleavage came to 0.338.

G27A A39G: the self-cleavage was 0.121.

U53C U60A: the self-cleavage was 0.635.

For the variant U53C U60G, the self-cleavage was 0.557.

A23U U33A: the self-cleavage stood at 0.153.

As to A22G G69C, the self-cleavage turned out to be 0.209.

As for U5A G54U, the self-cleavage came out at 0.327.

Consider U52C C65U, for which the self-cleavage was determined as 0.471.

Turning to U9C A23G, the self-cleavage turned out to be 0.814.

Turning to C16U G68C, the self-cleavage stood at 0.22.

Take C12G A59C: the self-cleavage stood at 0.076.

For the variant G1C A11C, the self-cleavage came out at 0.0386.

For the variant G21U A61U, the self-cleavage was 0.202.

As for A43C U58C, the self-cleavage was found to be 0.148.

Consider U2A C3G, for which the self-cleavage turned out to be 0.127.

Take C50G U70C: the self-cleavage was determined as 0.498.

As for G40C U55A, the self-cleavage turned out to be 0.107.

Turning to A39G G42A, the self-cleavage is 0.114.

Consider U8G G25A, for which the self-cleavage was found to be 0.21.

On to C6A G68U, for which the self-cleavage was found to be 0.181.

As for U20A A22U, the self-cleavage came to 0.849.

Consider U5C C48U, for which the self-cleavage was determined as 0.0847.

Regarding A28G A45C, the self-cleavage was 0.279.

As for G21A G54C, the self-cleavage is 0.293.

For U9G A24C, the self-cleavage was 0.318.

With C38G U63A, the self-cleavage stood at 0.117.

For the variant U14G G27A, the self-cleavage came to 0.189.

With C4G G25U, the self-cleavage was found to be 0.177.

With A30G A39G, the self-cleavage was found to be 0.127.

For the variant U2C A47C, the self-cleavage came to 0.0817.

As for C46G U58G, the self-cleavage is 0.112.

G21C U58G: the self-cleavage amounted to 0.647.

On to G40U C50G, for which the self-cleavage was found to be 0.136.

Turning to A36G A47C, the self-cleavage was determined as 0.372.

Regarding C3G U7A, the self-cleavage amounted to 0.321.

For A49C U67G, the self-cleavage turned out to be 0.109.

A36G A64C: the self-cleavage came to 0.17.

On to C3A C4A, for which the self-cleavage turned out to be 0.204.

Take A43U U53C: the self-cleavage was 0.111.

Turning to G25U U33A, the self-cleavage worked out at 0.0923.

On to U9G G34U, for which the self-cleavage was 1.15.

On to U58G A61U, for which the self-cleavage came out at 0.0693.

Turning to A47C C65A, the self-cleavage was found to be 0.282.

With U2G A61U, the self-cleavage stood at 0.191.

On to A24G C38G, for which the self-cleavage turned out to be 0.197.

For the variant G32A C46A, the self-cleavage was determined as 0.145.

As to U5C A26C, the self-cleavage amounted to 0.497.

In the case of G15A G68A, the self-cleavage was 0.362.

In the case of A43G U58C, the self-cleavage amounted to 0.12.

With G19U A30G, the self-cleavage was found to be 0.12.

Turning to G19U A30U, the self-cleavage came to 0.181.

U14C A47G: the self-cleavage amounted to 0.118.

Consider C16G U33C, for which the self-cleavage stood at 0.188.

With A23U C38A, the self-cleavage worked out at 0.17.

As to A11C U62A, the self-cleavage was 0.208.

G19C G21U: the self-cleavage came out at 0.718.

Take C12G U67G: the self-cleavage stood at 0.215.

For C3G A47U, the self-cleavage came out at 0.0452.

On to U53A G57U, for which the self-cleavage was found to be 0.181.

Consider G15U G29U, for which the self-cleavage was found to be 0.124.

Turning to U9C C65G, the self-cleavage is 0.159.

For the variant C65U G68U, the self-cleavage stood at 0.327.

With C4G A64C, the self-cleavage was 0.167.

Take A11G A61G: the self-cleavage was found to be 0.166.

As for G13U G32C, the self-cleavage came out at 0.232.
